This test has as its target GAr fused to the N-terminus of p53 (GAr-p53), nascent peptide on polysomes (Epstein-Barr virus | not stated). As to the kind of experiment: proximity ligation; PLEA (PLA ELISA): polysomes of cycloheximide-treated H1299 lysates captured on 96-well plates with goat anti-RPL5, increasing amounts of polysomes; in vitro PLA with anti-p53 (rabbit) and anti-NACA (mouse). A general note: ELISA stands for enzyme-linked immunosorbent assay.

Substance “nascent polypeptide-associated complex subunit alpha (NACA), endogenous in H1299 cells (from UniProt Q13765 1-215) (natural protein)” displayed a fold interaction (PLEA signal) against p53 of 3 fold.

For the origin of these results see PMC9508830.
